B1: SAM and SH3 domain-containing protein 1, residues 630 to 700; numbered along this chain, O94885 (parent)
chain: GRPPQPKSVEDLLDRINLKEHMPTFLFNGYEDLDTFKLLEEEDLDELNIRDPEHRAVLLTAVELLQEYDSN

± gives the uncertainty stated by the source.

The variants in the series derive from B1. As to the kind of experiment: abundance fitness (aPCA) (normalised: wild type 0, dead -1); higher = more abundant; growth selection in yeast, the domain comes from the species named. The conditions noted are these: Homo sapiens.
In the case of H21P, the abundance fitness is -0.798 ± 0.065.
The value for H21W was -0.248 ± 0.047; that for E31H was 0.195 ± 0.038; that for E31T was 0.251 ± 0.033.
The value for E31P was -0.15 ± 0.039; that for E31M was -0.158 ± 0.046.
For E31W, the abundance fitness was -0.248 ± 0.049.
The result for E31Q reads 0.029 ± 0.044; that for E31A, 0.207 ± 0.033; that for D14M, -0.34 ± 0.066.
On to D14S, for which the abundance fitness was -0.168 ± 0.039.
Turning to D14K, the abundance fitness is -0.273 ± 0.065.
The result for D14V reads -0.287 ± 0.047; that for D14R, -0.434 ± 0.055.
Take D14C: the abundance fitness was -0.215 ± 0.054.
E20M: the abundance fitness is -0.212 ± 0.064.
The result for E20G reads -0.673 ± 0.094; that for E20F, -0.502 ± 0.071.
Take E20S: the abundance fitness is -0.332 ± 0.053.
The value for E20I was -0.244 ± 0.061.
Consider E20V, for which the abundance fitness is -0.203 ± 0.054.
The value for L13F was -0.576 ± 0.071; that for L13E was -0.572 ± 0.081; that for L13V was -1 ± 0.085.
The result for L13M reads -0.724 ± 0.077; that for L13P, -0.71 ± 0.07.
The value for L13D was -0.762 ± 0.1; that for L13S was -0.887 ± 0.068; that for K19E was -0.434 ± 0.073.
For the variant K19Q, the abundance fitness turned out to be 0.002 ± 0.044.
Take K19S: the abundance fitness worked out at 0.085 ± 0.033.
K19A: the abundance fitness is -0.055 ± 0.039.
The value for M22V was 0.046 ± 0.035; that for M22W was 0.281 ± 0.041.
The result for M22G reads -0.346 ± 0.042; that for M22K, -0.252 ± 0.055; that for M22E, -0.213 ± 0.054.
The result for M22T reads 0.009 ± 0.04; that for E42K, 0.283 ± 0.048; that for E42W, -0.618 ± 0.08.
Take E42C: the abundance fitness is -0.222 ± 0.053.
The value for P4D was 0.343 ± 0.055; that for P4E was 0.237 ± 0.067; that for P4F was 0.2 ± 0.05.
The result for P4Y reads 0.067 ± 0.049; that for E41L, -0.635 ± 0.05.
The result for E41M reads -0.578 ± 0.073.
For E41H, the abundance fitness is -0.7 ± 0.076.
As for E41G, the abundance fitness was -0.465 ± 0.07.
The result for E41K reads -0.302 ± 0.066; that for T60Q, 0.266 ± 0.043.
As to E53P, the abundance fitness is -0.924 ± 0.09.
The value for E53C was -0.23 ± 0.06; that for E53F was -0.673 ± 0.079; that for E53R was -0.266 ± 0.045.
The result for H54G reads -0.832 ± 0.055; that for H54M, -0.501 ± 0.064.
Turning to H54T, the abundance fitness was -0.093 ± 0.045.
The result for H54D reads -0.02 ± 0.044.
The result for H54V reads -0.189 ± 0.037.
The result for H54A reads -0.169 ± 0.039; that for R55Q, -0.5 ± 0.071; that for R55N, -0.891 ± 0.086.
Consider R55C, for which the abundance fitness was -0.888 ± 0.087.
The result for G29S reads -0.834 ± 0.059; that for G29D, -0.837 ± 0.1.
With G29Y, the abundance fitness was -0.895 ± 0.1.
The result for D45E reads -0.276 ± 0.06; that for D45I, 0.037 ± 0.039.
D45F: the abundance fitness is -0.48 ± 0.049.
The result for F36W reads -0.712 ± 0.089; that for F36Y, -0.878 ± 0.095.
The result for F36S reads -0.749 ± 0.06; that for F36P, -0.9 ± 0.092.
As for D51C, the abundance fitness is -0.396 ± 0.052.
As to D51N, the abundance fitness was -0.159 ± 0.049.
Turning to D51H, the abundance fitness is -0.447 ± 0.052.
As to D51Q, the abundance fitness was -0.307 ± 0.048.
The value for D51S was -0.49 ± 0.04; that for D51W was -0.862 ± 0.079; that for D51Y was -0.774 ± 0.06.
The result for D51G reads -0.75 ± 0.063; that for F27R, 0.38 ± 0.033.
The value for F27L was 0.346 ± 0.031; that for F27W was -0.449 ± 0.054; that for F27Q was 0.393 ± 0.043.
As to F27N, the abundance fitness was 0.418 ± 0.04.
The value for F27P was -0.655 ± 0.061; that for K37R was -0.211 ± 0.046.
The result for K37I reads -0.848 ± 0.093.
With K37Y, the abundance fitness is -1.11 ± 0.12.
The result for K37C reads -0.449 ± 0.072; that for K37T, -0.615 ± 0.062.
K37H: the abundance fitness is -0.76 ± 0.086.
The value for K37F was -0.946 ± 0.11.
As for K37A, the abundance fitness is -0.226 ± 0.047.
The result for Y30G reads -0.987 ± 0.076; that for Y30N, -0.833 ± 0.08.
The result for Y30H reads -0.737 ± 0.071.
The result for Y30I reads 0.042 ± 0.043; that for Y30L, -0.557 ± 0.049.
Take Y30P: the abundance fitness was -0.767 ± 0.081.
On to Y30T, for which the abundance fitness is -0.906 ± 0.07.
For R2P, the abundance fitness is -0.632 ± 0.091.
The value for R2T was -0.239 ± 0.048.
The result for R2L reads -0.246 ± 0.054; that for R2K, -0.212 ± 0.05; that for R2G, -0.509 ± 0.077.
For L26C, the abundance fitness is -0.464 ± 0.073.
The value for L26E was -0.188 ± 0.05.
For the variant L26F, the abundance fitness was -0.167 ± 0.054.
Consider L26K, for which the abundance fitness was determined as 0.034 ± 0.044.
The result for L26V reads 0.034 ± 0.037; that for L26R, -0.111 ± 0.039.
The result for L26S reads -0.337 ± 0.045; that for L58I, 0.167 ± 0.048.
The result for L58P reads -0.501 ± 0.067.
In the case of L58N, the abundance fitness is -0.51 ± 0.075.
Regarding L58Q, the abundance fitness was -0.468 ± 0.073.
Take L58R: the abundance fitness was -0.651 ± 0.056.
The value for I49C was -0.728 ± 0.072; that for I49K was -0.863 ± 0.08.
The result for Y68L reads -0.068 ± 0.038; that for Y68N, 0.138 ± 0.053.
The value for Y68S was 0.14 ± 0.038; that for Y68T was 0.031 ± 0.045.
For Y68D, the abundance fitness was found to be 0.076 ± 0.054.
The value for Y68W was -0.056 ± 0.051; that for Y68Q was 0.254 ± 0.048; that for I16A was -0.424 ± 0.062.
Take T24E: the abundance fitness was -0.435 ± 0.077.
The value for T24R was -0.367 ± 0.04.
The value for Q5N was -0.113 ± 0.055.
Regarding Q5L, the abundance fitness was -0.345 ± 0.043.
The result for Q5C reads 0.007 ± 0.064; that for Q5R, -0.25 ± 0.049; that for P6N, -0.792 ± 0.11.
The value for P6Q was -0.726 ± 0.1; that for P6K was -0.63 ± 0.1; that for P6M was -0.264 ± 0.07.
The result for P6L reads -0.434 ± 0.045; that for P6G, -0.655 ± 0.061.
P6W: the abundance fitness is -0.092 ± 0.052.
The result for P6A reads -0.421 ± 0.056.
The value for L47C was -0.577 ± 0.055.
The value for L47H was -0.788 ± 0.062; that for L47Q was -0.805 ± 0.092; that for T35A was 0.067 ± 0.042.
Consider T35H, for which the abundance fitness is 0.022 ± 0.047.
The result for Q66I reads -0.563 ± 0.054.
The result for Q66W reads -0.21 ± 0.061; that for Q66A, -0.317 ± 0.048; that for Q66E, -0.623 ± 0.088.
Consider Q66M, for which the abundance fitness was -0.422 ± 0.054.
The result for K7C reads -0.533 ± 0.066.
On to K7P, for which the abundance fitness is -0.679 ± 0.063.
The result for K7H reads -0.308 ± 0.047; that for K7I, -0.086 ± 0.042.
The result for K7N reads -0.142 ± 0.041.
For P3E, the abundance fitness is 0.04 ± 0.056.
Regarding P3M, the abundance fitness came out at 0.008 ± 0.049.
Take P3Q: the abundance fitness was -0.118 ± 0.051.
Take P3W: the abundance fitness was -0.132 ± 0.062.
The result for P3Y reads 0.005 ± 0.047.
Turning to P3R, the abundance fitness is -0.302 ± 0.046.
The value for P3I was 0.035 ± 0.047.
The value for P3N was -0.038 ± 0.049.

The values are drawn from the Human Domainome abundance scans (Beltran et al. 2025).
